Measured values as given in paper PMC12416549 (2024).
Numbering of substitutions follows the chain as printed. In names and notes the source's numbering stands.

T1: TNFR1 (Homo sapiens, UniProt P19438)
T1 chain: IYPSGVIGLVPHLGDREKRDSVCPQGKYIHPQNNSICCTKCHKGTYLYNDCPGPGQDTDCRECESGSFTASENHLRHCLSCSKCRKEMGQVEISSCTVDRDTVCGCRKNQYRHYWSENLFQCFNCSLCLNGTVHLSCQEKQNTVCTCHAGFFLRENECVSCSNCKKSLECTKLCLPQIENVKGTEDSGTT

B1: L82T (designed binder)
chain: MTLQELLREEALRRAEAEAFRYALELLAEKFPEQKEYLLDLAEEIESQIRSLSGVDVEDVRKFLDKEWAWVKELLAEHPAETAEVEAARAARLAELRAEVEAKVAA
B2: V60P (designed binder)
chain: B1 chain with V60P, T82L
B3: K66P (designed binder)
chain: B1 chain with K66P, T82L
B4: Y37W (designed binder)
chain: B1 chain with Y37W, T82L
B5: V85T (designed binder)
chain: B1 chain with T82L, V85T
B6: E36R (designed binder)
chain: B1 chain with E36R, T82L
B7: V104T (designed binder)
chain: B1 chain with T82L, V104T
B8: K66E (designed binder)
chain: B1 chain with K66E, T82L
B9: E58S (designed binder)
chain: B1 chain with E58S, T82L
B10: A80M (designed binder)
chain: B1 chain with A80M, T82L
B11: K72H (designed binder)
chain: B1 chain with K72H, T82L
B12: K62W (designed binder)
chain: B1 chain with K62W, T82L
B13: V100C (designed binder)
chain: B1 chain with T82L, V100C
B14: E9G (designed binder)
chain: B1 chain with E9G, T82L
B15: E36T (designed binder)
chain: B1 chain with E36T, T82L
B16: A98R (designed binder)
chain: B1 chain with T82L, A98R
B17: L75T (designed binder)
chain: B1 chain with L75T, T82L
B18: V100H (designed binder)
chain: B1 chain with T82L, V100H
B19: E101F (designed binder)
chain: B1 chain with T82L, E101F
B20: E58W (designed binder)
chain: B1 chain with E58W, T82L
B21: A19E (designed binder)
chain: B1 chain with A19E, T82L
B22: K35H (designed binder)
chain: B1 chain with K35H, T82L
B23: R21M (designed binder)
chain: B1 chain with R21M, T82L
B24: L3N (designed binder)
chain: B1 chain with L3N, T82L
B25: L3E (designed binder)
chain: B1 chain with L3E, T82L
B26: L26Q (designed binder)
chain: B1 chain with L26Q, T82L
B27: L26R (designed binder)
chain: B1 chain with L26R, T82L
B28: Q34W (designed binder)
chain: B1 chain with Q34W, T82L
B29: D65E (designed binder)
chain: B1 chain with D65E, T82L
B30: E18R (designed binder)
chain: B1 chain with E18R, T82L
B31: P32G (designed binder)
chain: B1 chain with P32G, T82L
B32: Q4M (designed binder)
chain: B1 chain with Q4M, T82L
B33: D56T (designed binder)
chain: B1 chain with D56T, T82L
B34: E99T (designed binder)
chain: B1 chain with T82L, E99T
B35: R21D (designed binder)
chain: B1 chain with R21D, T82L
B36: S51D (designed binder)
chain: B1 chain with S51D, T82L
B37: K30S (designed binder)
chain: B1 chain with K30S, T82L
B38: K72P (designed binder)
chain: B1 chain with K72P, T82L
B39: F20N (designed binder)
chain: B1 chain with F20N, T82L
B40: L75E (designed binder)
chain: B1 chain with L75E, T82L
B41: A28G (designed binder)
chain: B1 chain with A28G, T82L
B42: S47T (designed binder)
chain: B1 chain with S47T, T82L
B43: P32H (designed binder)
chain: B1 chain with P32H, T82L
B44: L3A (designed binder)
chain: B1 chain with L3A, T82L
B45: E86W (designed binder)
chain: B1 chain with T82L, E86W
B46: E86A (designed binder)
chain: B1 chain with T82L, E86A
B47: E33F (designed binder)
chain: B1 chain with E33F, T82L
B48: E86D (designed binder)
chain: B1 chain with T82L, E86D
B49: V71P (designed binder)
chain: B1 chain with V71P, T82L
B50: A90M (designed binder)
chain: B1 chain with T82L, A90M
B51: A91D (designed binder)
chain: B1 chain with T82L, A91D
B52: Q4K (designed binder)
chain: B1 chain with Q4K, T82L
B53: K103I (designed binder)
chain: B1 chain with T82L, K103I
B54: W68V (designed binder)
chain: B1 chain with W68V, T82L
B55: A105S (designed binder)
chain: B1 chain with T82L, A105S
B56: K66V (designed binder)
chain: B1 chain with K66V, T82L
B57: L93A (designed binder)
chain: B1 chain with T82L, L93A
B58: A94Q (designed binder)
chain: B1 chain with T82L, A94Q
B59: L24E (designed binder)
chain: B1 chain with L24E, T82L

Target: T1, TNFR1
Assay: yeast display SC50

Row | apparent Kd (screen) | Binder
1 | 0.653 nM | B1
2 | 12.5 nM | B2
3 | 3.99 nM | B3
4 | 3.3 nM | B4
5 | 0.446 nM | B5
6 | 0.653 nM | B6
7 | 0.956 nM | B7
8 | 0.869 nM | B8
9 | 0.593 nM | B9
10 | 0.49 nM | B10
11 | 0.49 nM | B11
12 | 0.593 nM | B12
13 | 0.446 nM | B13
14 | 1.69 nM | B14
15 | 2.25 nM | B15
16 | 0.653 nM | B16
17 | 0.869 nM | B17
18 | 0.869 nM | B18
19 | 0.593 nM | B19
20 | 0.653 nM | B20

Row | apparent Kd (screen) | Binder
21 | 0.956 nM | B21
22 | 0.446 nM | B22
23 | 0.956 nM | B23
24 | 24.4 nM | B24
25 | 18.3 nM | B25
26 | 0.593 nM | B26
27 | 0.446 nM | B27
28 | 1.69 nM | B28
29 | 0.446 nM | B29
30 | 0.718 nM | B30
31 | 0.593 nM | B31
32 | 0.49 nM | B32
33 | 2.48 nM | B33
34 | 0.79 nM | B34
35 | 0.539 nM | B35
36 | 2.05 nM | B36
37 | 0.718 nM | B37
38 | 11.4 nM | B38
39 | 0.446 nM | B39
40 | 0.653 nM | B40

Row | apparent Kd (screen) | Binder
41 | 0.446 nM | B41
42 | 0.653 nM | B42
43 | 0.79 nM | B43
44 | 2.73 nM | B44
45 | 2.73 nM | B45
46 | 0.956 nM | B46
47 | 0.956 nM | B47
48 | 0.446 nM | B48
49 | 12.5 nM | B49
50 | 0.539 nM | B50
51 | 0.49 nM | B51
52 | 0.49 nM | B52
53 | 1.05 nM | B53
54 | 4.39 nM | B54
55 | 0.79 nM | B55
56 | 0.653 nM | B56
57 | 1.4 nM | B57
58 | 0.79 nM | B58
59 | 0.869 nM | B59
